Measurements as given in article PMC10412585, “High-throughput characterization of HLA-E-presented CD94/NKG2x ligands reveals peptides which modulate NK cell activation” (Nature Communications, 2023).

Assays:
[1] = molecular target: … peptide HLA-E single chain trimer (soluble, biotinylated) (human, biotin (AviTag)); test: SPR; conditions: both partners purified
[2] = molecular target: WN peptide (…) HLA-E single chain trimer (soluble, biotinylated) (human, biotin (AviTag)); test: SPR; steady state, Biacore T200, biotinylated pMHC SCT immobilised at about 400 RU on a Series S SA chip, CD94/NKG2x as analyte 0.1-102.4 μM, 10 μL/min, 25 °C, HBS-EP+; reference HLA-DR401; approximate KD by Biacore software; conditions: both partners purified

| Kd [1] [µM] | Kd [2] [µM] | Binder |
| --- | --- | --- |
| ~21.4 | ~17.4 | CD94/NKG2C single-chain fusion protein (human NKG2C ectodomain - GGSGGS - human CD94 ectodomain), produced in Hi5 cells for SPR (receptor, also called CD94/NKG2x) not shown |
| ~8.2 | ~41.5 | CD94/NKG2A single-chain fusion protein (human NKG2A ectodomain - GGSGGS - human CD94 ectodomain), produced in Hi5 cells for SPR (receptor, also called CD94/NKG2x) not shown |
